In article PMC6511849 (Nucleic Acids Research, 2019):
Non-standard residues stand in square brackets, D forms with d. No end group written: not given here. *: point of attachment. FITC = O=C1OC2(c3ccc(O)cc3Oc3cc(O)ccc32)c2ccc(NC(=S)*)cc21; pS = N[C@@H](COP(=O)(O)O)C(=O)O; Ahx = NCCCCCC(=O)O

T1: ERERERER backbone with Tyr at position 1
T1 peptide: {FITC-Ahx}-YRERERER

T2: CPSF6 D23-4Glu peptide (human, UniProt Q16630 509-528, K510E | R512E | R522E | R524E, FITC-Ahx label)
T2 peptide: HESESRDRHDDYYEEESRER

T3: CPSF6 D2P-D3 peptide (human, UniProt Q16630 509-528)
T3 peptide: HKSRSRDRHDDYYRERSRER

B1: D3P peptide with Glu for Tyr at position 1 (ERERERER backbone with phosphoserine at position 5) (peptide)
peptide: {FITC-Ahx}-ERER[pS]RER
B2: transportin 3 (TNPO3) (natural protein)
chain: MEGAKPTLQLVYQAVQALYHDPDPSGKERASFWLGELQRSVHAWEISDQLLQIRQDVESCYFAAQTMKMKIQTSFYELPTDSHASLRDSLLTHIQNLKDLSPVIVTQLALAIADLALQMPSWKGCVQTLVEKYSNDVTSLPFLLEILTVLPEEVHSRSLRIGANRRTEIIEDLAFYSSTVVSLLMTCVEKAGTDEKMLMKVFRCLGSWFNLGVLDSNFMANNKLLALLFEVLQQDKTSSNLHEAASDCVCSALYAIENVETNLPLAMQLFQGVLTLETAYHMAVAREDLDKVLNYCRIFTELCETFLEKIVCTPGQGLGDLRTLELLLICAGHPQYEVVEISFNFWYRLGEHLYKTNDEVIHGIFKAYIQRLLHALARHCQLEPDHEGVPEETDDFGEFRMRVSDLVKDLIFLIGSMECFAQLYSTLKEGNPPWEVTEAVLFIMAAIAKSVDPENNPTLVEVLEGVVRLPETVHTAVRYTSIELVGEMSEVVDRNPQFLDPVLGYLMKGLCEKPLASAAAKAIHNICSVCRDHMAQHFNGLLEIARSLDSFLLSPEAAVGLLKGTALVLARLPLDKITECLSELCSVQVMALKKLLSQEPSNGISSDPTVFLDRLAVIFRHTNPIVENGQTHPCQKVIQEIWPVLSETLNKHRADNRIVERCCRCLRFAVRCVGKGSAALLQPLVTQMVNVYHVHQHSCFLYLGSILVDEYGMEEGCRQGLLDMLQALCIPTFQLLEQQNGLQNHPDTVDDLFRLATRFIQRSPVTLLRSQVVIPILQWAIASTTLDHRDANCSVMRFLRDLIHTGVANDHEEDFELRKELIGQVMNQLGQQLVSQLLHTCCFCLPPYTLPDVAEVLWEIMQVDRPTFCRWLENSLKGLPKETTVGAVTVTHKQLTDFHKQVTSAEECKQVCWALRDFTRLFR

What was measured:
TNPO3 = TNPO3 (UniProt Q9Y5L0); experiment: fluorescence polarisation titration; settings: reference: unmodified D23 peptide
transportin 3 (TNPO3) = biological target: B2; experiment: fluorescence polarisation
[1] = biological target: CPSF6 D1 peptide (unmodified 8-mer) (human); experiment: fluorescence polarisation
[2] = biological target: CPSF6 D2 peptide (unmodified 8-mer) (human); experiment: fluorescence polarisation
[3] = biological target: ER/S peptide (D3 peptide with Glu for Tyr at position 1) (human) (UniProt Q16630); experiment: fluorescence polarisation
Sequence of ER/S peptide (D3 peptide with Glu for Tyr at position 1) (human) (Q16630 whole entry, looked up, tested part not stated): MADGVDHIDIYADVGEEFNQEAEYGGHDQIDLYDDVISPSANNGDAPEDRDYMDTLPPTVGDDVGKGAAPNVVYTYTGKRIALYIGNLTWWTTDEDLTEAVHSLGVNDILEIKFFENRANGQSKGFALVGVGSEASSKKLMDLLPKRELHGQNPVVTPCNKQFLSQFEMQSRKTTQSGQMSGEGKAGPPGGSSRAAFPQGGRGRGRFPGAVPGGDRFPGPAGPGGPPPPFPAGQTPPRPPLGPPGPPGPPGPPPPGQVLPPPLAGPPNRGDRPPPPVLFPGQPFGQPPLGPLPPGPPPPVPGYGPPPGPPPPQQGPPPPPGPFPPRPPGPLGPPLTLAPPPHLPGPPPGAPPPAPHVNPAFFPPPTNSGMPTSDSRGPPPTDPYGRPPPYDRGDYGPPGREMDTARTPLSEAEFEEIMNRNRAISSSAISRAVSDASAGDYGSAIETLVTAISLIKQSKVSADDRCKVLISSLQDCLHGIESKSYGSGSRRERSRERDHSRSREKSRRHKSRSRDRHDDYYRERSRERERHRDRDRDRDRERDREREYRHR

[4] = biological target: SRSF1 RS peptide (unmodified 8-mer); experiment: fluorescence polarisation
[5] = biological target: SRSF1 RSP peptide (phosphorylated 8-mer); experiment: fluorescence polarisation
[6] = biological target: B1; experiment: fluorescence polarisation
[7] = biological target: T1, ERERERER backbone with Tyr at position 1; experiment: fluorescence polarisation
CPSF6 D23-4Glu peptide = biological target: T2, CPSF6 D23-4Glu peptide; experiment: fluorescence polarisation
CPSF6 D2P-D3 peptide = biological target: T3, CPSF6 D2P-D3 peptide; experiment: fluorescence polarisation
[8] = biological target: GST-RSLD-WT, non-phosphorylated (expressed without CLK1) (human); experiment: pull-down
Sequence of GST-RSLD-WT, non-phosphorylated (expressed without CLK1) (human) (Q16630 whole entry): as the sequence (Q16630 whole entry, looked up, tested part not stated) above

“CPSF6 D2-D3 region 20-mer (D23) (from UniProt Q16630) D2P-D3P peptide” was tested, and the fold change (TNPO3; sites S511,S513,S525) was “stronger”.

In the case of “CPSF6 D2-D3 region 20-mer (D23) (from UniProt Q16630) D2P-D3 peptide”, the fold change (TNPO3; sites S511,S513) is reported as “stronger”.

In the case of “CPSF6 D2-D3 region 20-mer (D23) (from UniProt Q16630) D2-D3P peptide”, the fold change (TNPO3; sites S525) is reported as “stronger”.

Molecule B1 has a Kd (transportin 3 (TNPO3)) of 17.1 µM.

In the case of B2, the Kd [1] is reported as 141 µM, the Kd [2] is reported as greater than 1000 µM and the Kd [3] is reported as greater than 1000 µM. The Kd [4] was greater than 1000 µM, the Kd [5] was 1.3 µM and the “fold increase of affinity against the ERERERER backbone” value [6] was roughly 5 fold. For the same molecule, the “fold increase of affinity against the ERERERER backbone” value [7] was roughly 10 fold, the “fold reduction of affinity against the D23 peptide” value (CPSF6 D23-4Glu peptide) was roughly 25 fold and the “fold increase of affinity against the D23 peptide” value (CPSF6 D2P-D3 peptide) was roughly 3.3 fold. It also gave a percent of input TNPO3 recovered [8] of 30%.
